# Laboratory results: US20250002588A1 (DIAGONAL THERAPEUTICS, published 2025)
# B1: DGL655 (bispecific antibody)
# chain 1: EVQLLESGGGLVQPGGSLRLSCAASGFTFSDSYMSWIRQAPGKGLEWVSSISGGSTYYADSVKGRFTISRDNSENTLYLQMNSLRAEDTAVYYCARDFGVAGYFGQYGMDVWGQGTLVTVSSGGGGSGGGGSGGGGSQSVLTQPPSASGTPGQRVTISCTGSSSNIGAGYDVHWYQQLPGTAPKLLIYRSNQRPSGVPDRFSGSKSGTSASLAISGLRSEDEADYYCSSYAGNYNLVFGGGTKLTVLDKTHTCPPCPAPEAAGAPSVFLFPPKPKDTLMISRTPEVTCVVVDVSHEDPEVKFNWYVDGVEVHNAKTKPREEQYNSTYRVVSVLTVLHQDWLNGKEYKCKVSNKALPAPIEKTISKAKGQPREPQVCTLPPSRDELTKNQVSLSCAVKGFYPSDIAVEWESNGQPENNYKTTPPVLDSDGSFFLVSKLTVDKSRWQQGNVFSCSVMHEALHNHYTQKSLSLSPGWSHPQFEK
# chain 2: not shown
# B2: DGL656 (bispecific antibody)
# chain 1: EVQLLESGGGLVQPGGSLRLSCAASGFTFSDYYMNWIRQAPGKGLEWVSSISGGSTYYADSVKGRFTISRDNSENTLYLQMNSLRAEDTAVYYCARDFGVAGWFGYYGMDVWGQGTLVTVSSGGGGSGGGGSGGGGSQSVLTQPPSASGTPGQRVTISCTGSSSNIGAGYDVHWYQQLPGTAPKLLIYRSNQRPSGVPDRFSGSKSGTSASLAISGLRSEDEADYYCSSYAGNYNLVFGGGTKLTVLDKTHTCPPCPAPEAAGAPSVFLFPPKPKDTLMISRTPEVTCVVVDVSHEDPEVKFNWYVDGVEVHNAKTKPREEQYNSTYRVVSVLTVLHQDWLNGKEYKCKVSNKALPAPIEKTISKAKGQPREPQVCTLPPSRDELTKNQVSLSCAVKGFYPSDIAVEWESNGQPENNYKTTPPVLDSDGSFFLVSKLTVDKSRWQQGNVFSCSVMHEALHNHYTQKSLSLSPGWSHPQFEK
# chain 2: not shown
# B3: DGL730 (bispecific antibody)
# chain 1: EVQLLESGGGLVQPGGSLRLSCAASGFTFSDYYMTWIRQAPGKGLEWVSSISGGSTYYADSRKGRFTISRDNSENTLYLQMNSLRAEDTAVYYCARDYGVAGWFGQYGMDVWGQGTLVTVSSGGGGSGGGGSGGGGSQSVLTQPPSASGTPGQRVTISCTGSSSNIGAGYDVHWYQQLPGTAPKLLIYRSNQRPSGVPDRFSGSKSGTSASLAISGLRSEDEADYYCSSYAGNYNLVFGGGTKLTVLDKTHTCPPCPAPEAAGAPSVFLFPPKPKDTLMISRTPEVTCVVVDVSHEDPEVKFNWYVDGVEVHNAKTKPREEQYNSTYRVVSVLTVLHQDWLNGKEYKCKVSNKALPAPIEKTISKAKGQPREPQVCTLPPSRDELTKNQVSLSCAVKGFYPSDIAVEWESNGQPENNYKTTPPVLDSDGSFFLVSKLTVDKSRWQQGNVFSCSVMHEALHNHYTQKSLSLSPGWSHPQFEK
# chain 2: not shown
# B4: DGL731 (bispecific antibody)
# chain 1: EVQLLESGGGLVQPGGSLRLSCAASGFTFSDYYMTWIRQAPGKGLEWVSSISGGSTYYADSRKGRFTISRDNSENTLYLQMNSLRAEDTAVYYCARDFGVSGWFGQYGMDVWGQGTLVTVSSGGGGSGGGGSGGGGSQSVLTQPPSASGTPGQRVTISCTGSSSNIGAGYDVHWYQQLPGTAPKLLIYRSNQRPSGVPDRFSGSKSGTSASLAISGLRSEDEADYYCSSYAGNYNLVFGGGTKLTVLDKTHTCPPCPAPEAAGAPSVFLFPPKPKDTLMISRTPEVTCVVVDVSHEDPEVKFNWYVDGVEVHNAKTKPREEQYNSTYRVVSVLTVLHQDWLNGKEYKCKVSNKALPAPIEKTISKAKGQPREPQVCTLPPSRDELTKNQVSLSCAVKGFYPSDIAVEWESNGQPENNYKTTPPVLDSDGSFFLVSKLTVDKSRWQQGNVFSCSVMHEALHNHYTQKSLSLSPGWSHPQFEK
# chain 2: not shown
# B5: DGL732 (bispecific antibody)
# chain 1: EVQLLESGGGLVQPGGSLRLSCAASGFTFSDYWMTWIRQAPGKGLEWVSSISGGSTYYADSRKGRFTISRDNSENTLYLQMNSLRAEDTAVYYCARDFGVAGWFGQYGMDVWGQGTLVTVSSGGGGSGGGGSGGGGSQSVLTQPPSASGTPGQRVTISCTGSSSNIGAGYDVHWYQQLPGTAPKLLIYRSNQRPSGVPDRFSGSKSGTSASLAISGLRSEDEADYYCSSYAGNYNLVFGGGTKLTVLDKTHTCPPCPAPEAAGAPSVFLFPPKPKDTLMISRTPEVTCVVVDVSHEDPEVKFNWYVDGVEVHNAKTKPREEQYNSTYRVVSVLTVLHQDWLNGKEYKCKVSNKALPAPIEKTISKAKGQPREPQVCTLPPSRDELTKNQVSLSCAVKGFYPSDIAVEWESNGQPENNYKTTPPVLDSDGSFFLVSKLTVDKSRWQQGNVFSCSVMHEALHNHYTQKSLSLSPGWSHPQFEK
# chain 2: not shown
# B6: DGL733 (bispecific antibody)
# chain 1: EVQLLESGGGLVQPGGSLRLSCAASGFTFSDYYMTWIRQAPGKGLEWVSSISGGTTYYADSRKGRFTISRDNSENTLYLQMNSLRAEDTAVYYCARDFGVAGWFGQYGMDVWGQGTLVTVSSGGGGSGGGGSGGGGSQSVLTQPPSASGTPGQRVTISCTGSSSNIGAGYDVHWYQQLPGTAPKLLIYRSNQRPSGVPDRFSGSKSGTSASLAISGLRSEDEADYYCSSYAGNYNLVFGGGTKLTVLDKTHTCPPCPAPEAAGAPSVFLFPPKPKDTLMISRTPEVTCVVVDVSHEDPEVKFNWYVDGVEVHNAKTKPREEQYNSTYRVVSVLTVLHQDWLNGKEYKCKVSNKALPAPIEKTISKAKGQPREPQVCTLPPSRDELTKNQVSLSCAVKGFYPSDIAVEWESNGQPENNYKTTPPVLDSDGSFFLVSKLTVDKSRWQQGNVFSCSVMHEALHNHYTQKSLSLSPGWSHPQFEK
# chain 2: not shown
# B7: DGL734 (bispecific antibody)
# chain 1: EVQLLESGGGLVQPGGSLRLSCAASGFTFSDYWMTWIRQAPGKGLEWVSSISGGTTYYADSRKGRFTISRDNSENTLYLQMNSLRAEDTAVYYCARDYGVAGWFGQYGMDVWGQGTLVTVSSGGGGSGGGGSGGGGSQSVLTQPPSASGTPGQRVTISCTGSSSNIGAGYDVHWYQQLPGTAPKLLIYRSNQRPSGVPDRFSGSKSGTSASLAISGLRSEDEADYYCSSYAGNYNLVFGGGTKLTVLDKTHTCPPCPAPEAAGAPSVFLFPPKPKDTLMISRTPEVTCVVVDVSHEDPEVKFNWYVDGVEVHNAKTKPREEQYNSTYRVVSVLTVLHQDWLNGKEYKCKVSNKALPAPIEKTISKAKGQPREPQVCTLPPSRDELTKNQVSLSCAVKGFYPSDIAVEWESNGQPENNYKTTPPVLDSDGSFFLVSKLTVDKSRWQQGNVFSCSVMHEALHNHYTQKSLSLSPGWSHPQFEK
# chain 2: not shown
# B8: DGL735 (bispecific antibody)
# chain 1: EVQLLESGGGLVQPGGSLRLSCAASGFTFSDYWMTWIRQAPGKGLEWVSSISGGTTYYADSRKGRFTISRDNSENTLYLQMNSLRAEDTAVYYCARDFGVSGWFGQYGMDVWGQGTLVTVSSGGGGSGGGGSGGGGSQSVLTQPPSASGTPGQRVTISCTGSSSNIGAGYDVHWYQQLPGTAPKLLIYRSNQRPSGVPDRFSGSKSGTSASLAISGLRSEDEADYYCSSYAGNYNLVFGGGTKLTVLDKTHTCPPCPAPEAAGAPSVFLFPPKPKDTLMISRTPEVTCVVVDVSHEDPEVKFNWYVDGVEVHNAKTKPREEQYNSTYRVVSVLTVLHQDWLNGKEYKCKVSNKALPAPIEKTISKAKGQPREPQVCTLPPSRDELTKNQVSLSCAVKGFYPSDIAVEWESNGQPENNYKTTPPVLDSDGSFFLVSKLTVDKSRWQQGNVFSCSVMHEALHNHYTQKSLSLSPGWSHPQFEK
# chain 2: not shown
# B9: DGL736 (bispecific antibody)
# chain 1: not shown
# chain 2: EVQLLESGGGLVQPGGSLRLSCAASGFTFSDYYMTWIRQAPGKGLEWVSSISGGSTYYADSRKGRFTISRDNSENTLYLQMNSLRAEDTAVYYCARDFGVAGWFGQYGMDVWGQGTLVTVSSGGGGSGGGGSGGGGSQSVLTQPPSASGTPGQRVTISCTGSSSNIGAGYDVHWYQQLPGTAPKLLIYRSNQRPSGVPDRFSGSKSGTSASLAISGLRSEDEADYYCSSYAGNYNLVFGGGTKLTVLDKTHTCPPCPAPEAAGAPSVFLFPPKPKDTLMISRTPEVTCVVVDVSHEDPEVKFNWYVDGVEVHNAKTKPREEQYNSTYRVVSVLTVLHQDWLNGKEYKCKVSNKALPAPIEKTISKAKGQPREPQVCTLPPSRDELTKNQVSLSCAVKGFYPSDIAVEWESNGQPENNYKTTPPVLDSDGSFFLVSKLTVDKSRWQQGNVFSCSVMHEALHNHYTQKSLSLSPGWSHPQFEK
# B10: DGL737 (bispecific antibody)
# chain 1: not shown
# chain 2: EVQLLESGGGLVQPGGSLRLSCAASGFTFSDYYMTWIRQAPGKGLEWVSSISGGSTYYADSRKGRFTISRDNSENTLYLQMNSLRAEDTAVYYCARDFGVAGWFGQYGMDVWGQGTLVTVSSGGGGSGGGGSGGGGSQSVLTQPPSASGTPGQRVTISCTGSSSNIGAGYDVHWYQQLPGTAPKLLIYRSNQRPSGVPDRFSGSKSGTSASLAISGLRSEDEADYYCSSYAGNYNLVFGGGTKLTVLDKTHTCPPCPAPEAAGAPSVFLFPPKPKDTLMISRTPEVTCVVVDVSHEDPEVKFNWYVDGVEVHNAKTKPREEQYNSTYRVVSVLTVLHQDWLNGKEYKCKVSNKALPAPIEKTISKAKGQPREPQVCTLPPSRDELTKNQVSLSCAVKGFYPSDIAVEWESNGQPENNYKTTPPVLDSDGSFFLVSKLTVDKSRWQQGNVFSCSVMHEALHNHYTQKSLSLSPGWSHPQFEK
# B11: DGL860 (bispecific antibody)
# chain 1: not shown
# chain 2: EVQLLESGGGLVQPGGSLRLSCAASGFTFSDYYMNWIRQAPGKGLEWVSSISGGSTYYADSVKGRFTISRDNSENTLYLQMNSLRAEDTAVYYCARDFGVAGWFGQFGMDVWGQGTLVTVSSGGGGSGGGGSGGGGSQSVLTQPPSASGTPGQRVTISCTGSSSNIGAGYDVHWYQQLPGTAPKLLIYRSNQRPSGVPDRFSGSKSGTSASLAISGLRSEDEADYYCSSYAGNYNLVFGGGTKLTVLDKTHTCPPCPAPEAAGAPSVFLFPPKPKDTLMISRTPEVTCVVVDVSHEDPEVKFNWYVDGVEVHNAKTKPREEQYNSTYRVVSVLTVLHQDWLNGKEYKCKVSNKALPAPIEKTISKAKGQPREPQVCTLPPSRDELTKNQVSLSCAVKGFYPSDIAVEWESNGQPENNYKTTPPVLDSDGSFFLVSKLTVDKSRWQQGNVFSCSVMHEALHNHYTQKSLSLSPGWSHPQFEK
# Target: ALK-1/BMPR-2 receptor pair of the PathHunter U2Os dimerization cells (DiscoverX 93-0962C3) (UniProt P37023 22-503; Q13873 27-1038)
# Assay: cell-based or functional assay
# Chain of ALK-1/BMPR-2 receptor pair of the PathHunter U2Os dimerization cells (DiscoverX 93-0962C3) (P37023 22-503, chain 1 of 2): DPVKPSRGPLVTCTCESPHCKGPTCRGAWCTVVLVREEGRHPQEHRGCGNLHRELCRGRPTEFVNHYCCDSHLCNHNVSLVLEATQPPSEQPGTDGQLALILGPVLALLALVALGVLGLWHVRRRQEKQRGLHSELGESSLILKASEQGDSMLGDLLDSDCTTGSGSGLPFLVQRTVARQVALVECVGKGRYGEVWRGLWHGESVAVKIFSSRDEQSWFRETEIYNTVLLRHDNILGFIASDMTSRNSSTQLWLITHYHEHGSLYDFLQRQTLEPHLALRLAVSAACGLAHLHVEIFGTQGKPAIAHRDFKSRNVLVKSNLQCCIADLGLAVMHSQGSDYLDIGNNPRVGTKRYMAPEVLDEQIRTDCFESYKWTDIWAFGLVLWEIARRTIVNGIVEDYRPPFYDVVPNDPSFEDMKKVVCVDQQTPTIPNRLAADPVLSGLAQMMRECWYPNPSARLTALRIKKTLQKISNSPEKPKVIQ
# Chain of ALK-1/BMPR-2 receptor pair of the PathHunter U2Os dimerization cells (DiscoverX 93-0962C3) (Q13873 27-1038, chain 2 of 2): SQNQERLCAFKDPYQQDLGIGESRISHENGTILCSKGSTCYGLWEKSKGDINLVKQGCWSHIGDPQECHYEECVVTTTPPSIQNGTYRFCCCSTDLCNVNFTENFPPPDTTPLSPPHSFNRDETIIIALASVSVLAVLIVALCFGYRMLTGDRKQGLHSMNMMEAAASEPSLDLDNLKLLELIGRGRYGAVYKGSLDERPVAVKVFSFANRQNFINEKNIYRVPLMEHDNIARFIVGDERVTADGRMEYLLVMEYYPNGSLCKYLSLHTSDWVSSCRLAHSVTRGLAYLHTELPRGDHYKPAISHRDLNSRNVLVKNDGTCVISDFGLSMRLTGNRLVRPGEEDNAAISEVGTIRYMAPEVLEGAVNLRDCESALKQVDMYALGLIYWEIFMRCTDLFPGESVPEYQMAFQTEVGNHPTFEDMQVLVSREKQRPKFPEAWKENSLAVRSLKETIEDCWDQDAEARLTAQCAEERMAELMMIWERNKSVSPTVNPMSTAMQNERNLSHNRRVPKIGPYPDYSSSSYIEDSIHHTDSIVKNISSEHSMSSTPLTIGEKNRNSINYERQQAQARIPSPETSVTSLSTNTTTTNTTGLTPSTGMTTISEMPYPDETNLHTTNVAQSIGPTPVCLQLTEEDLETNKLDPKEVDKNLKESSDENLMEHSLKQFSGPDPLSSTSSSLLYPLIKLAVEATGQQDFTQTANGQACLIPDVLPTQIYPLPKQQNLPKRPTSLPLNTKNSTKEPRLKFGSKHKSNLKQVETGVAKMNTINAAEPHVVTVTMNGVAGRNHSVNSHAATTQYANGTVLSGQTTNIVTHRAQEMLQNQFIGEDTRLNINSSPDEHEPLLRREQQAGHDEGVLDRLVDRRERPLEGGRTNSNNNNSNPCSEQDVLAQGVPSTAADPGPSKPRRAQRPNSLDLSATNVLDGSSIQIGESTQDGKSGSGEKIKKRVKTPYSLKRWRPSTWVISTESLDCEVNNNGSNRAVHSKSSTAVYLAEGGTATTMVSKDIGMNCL
Binder,% Emax BMP9,Emax (RLU)
B1,18%,437000 RLU
B2,55%,1.36e+06 RLU
B3,22%,342000 RLU
B4,100%,1.56e+06 RLU
B5,54%,845000 RLU
B6,106%,1.65e+06 RLU
B7,14%,217000 RLU
B8,68%,1.06e+06 RLU
B9,73%,1.13e+06 RLU
B10,77%,1.2e+06 RLU
B11,79%,2.01e+06 RLU
